Data: patent US20240141059A1 (Bristol-Myers Squibb, published 2024)
Where “and” joins values, the source holds several entries; their conditions need not be identical. Equal entries are not always repeated. Where two headings read alike, the source gives them in different places.

Key:
hCD73-his [1] = target: T1, hCD73-his (human, UniProt P21589 26-546); experiment: DLS, target:mAb 1:1, 4 uM + 4 uM; unit from the text
T1 construct: range 26-546; also called full length extracellular domain of human-CD73
T1 sequence (looked up): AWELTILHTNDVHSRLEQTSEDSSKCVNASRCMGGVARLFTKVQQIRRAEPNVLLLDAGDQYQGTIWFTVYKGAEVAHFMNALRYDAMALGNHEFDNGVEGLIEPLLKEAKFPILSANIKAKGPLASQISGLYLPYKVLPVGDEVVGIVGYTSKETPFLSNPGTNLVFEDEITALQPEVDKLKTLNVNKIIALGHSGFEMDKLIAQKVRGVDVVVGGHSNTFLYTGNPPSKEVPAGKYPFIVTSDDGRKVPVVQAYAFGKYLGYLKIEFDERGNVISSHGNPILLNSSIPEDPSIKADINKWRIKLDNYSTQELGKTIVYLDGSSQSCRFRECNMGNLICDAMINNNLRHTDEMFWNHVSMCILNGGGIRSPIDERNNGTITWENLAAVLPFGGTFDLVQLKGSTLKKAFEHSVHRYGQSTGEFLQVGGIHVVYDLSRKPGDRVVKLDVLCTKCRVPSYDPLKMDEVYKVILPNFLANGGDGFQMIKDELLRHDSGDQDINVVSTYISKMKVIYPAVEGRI
Method: (§1) The structure and oligomeric state of CD73/antibody complexes in solution were examined by SEC-MALS and DLS.
(§2) Dynamic light scattering (DLS) studies were performed on a Wyatt DynaPro® plate reader in 384 well plates at 25° C. Experimental parameters were 20 acquisitions of 5 s each per measurement, and measurements were recorded in quadruplicate, with the average and standard deviation reported. Intensity autocorrelation functions were fitted using the “Regularization” algorithm in the Dynamics® software (Wyatt Technologies®).

human CD73 on cells [2] = target: T2, human CD73 on cells (human, UniProt P21589 27-549); experiment: cell-based or functional assay
T2 sequence (looked up): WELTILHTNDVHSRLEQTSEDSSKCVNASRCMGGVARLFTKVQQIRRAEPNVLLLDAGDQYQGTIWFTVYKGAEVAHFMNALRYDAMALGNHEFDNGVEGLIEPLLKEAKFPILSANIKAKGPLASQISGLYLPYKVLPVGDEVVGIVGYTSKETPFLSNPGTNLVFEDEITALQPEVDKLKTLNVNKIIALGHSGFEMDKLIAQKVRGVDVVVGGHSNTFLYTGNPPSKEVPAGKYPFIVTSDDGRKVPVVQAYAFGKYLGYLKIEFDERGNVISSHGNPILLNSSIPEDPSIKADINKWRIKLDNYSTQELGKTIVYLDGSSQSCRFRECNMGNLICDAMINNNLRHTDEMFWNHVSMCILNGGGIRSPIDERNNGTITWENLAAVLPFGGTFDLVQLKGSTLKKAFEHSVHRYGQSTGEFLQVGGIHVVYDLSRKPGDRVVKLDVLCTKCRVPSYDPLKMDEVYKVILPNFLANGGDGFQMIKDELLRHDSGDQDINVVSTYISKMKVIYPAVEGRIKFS

N-hCD73-his [3] = target: T3, N-hCD73-his (human, UniProt P21589 26-336, limits assumed); experiment: DLS, target:mAb 2:1, 8 uM + 4 uM; unit from the text
T3 construct: monomeric in solution by SEC-MALS; also called N-terminal domain of hCD73
T3 sequence (looked up): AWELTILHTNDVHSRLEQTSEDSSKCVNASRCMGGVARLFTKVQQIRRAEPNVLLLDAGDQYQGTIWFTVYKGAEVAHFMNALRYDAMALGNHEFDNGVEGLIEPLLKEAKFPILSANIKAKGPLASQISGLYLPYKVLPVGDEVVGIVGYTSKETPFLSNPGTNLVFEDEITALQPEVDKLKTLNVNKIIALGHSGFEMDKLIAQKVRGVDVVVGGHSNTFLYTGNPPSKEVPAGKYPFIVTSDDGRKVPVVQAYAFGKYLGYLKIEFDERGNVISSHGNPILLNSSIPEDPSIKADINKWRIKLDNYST
Method: as §1, §2

N-hCD73-his [4] = target: T3, N-hCD73-his; experiment: SEC-MALS, target:mAb 2:1, 8 uM + 4 uM
Method: as §1
(§3) The oligomeric state of CD73/antibody complexes were examined by size-exclusion chromatography coupled to an in-line multi-angle light scattering detector (SEC-MALS). Isocratic separations were performed on a Shodex PROTEIN KW-803 column connected to an Prominence Shimadzu UFLC in buffer containing 200 mM K₂HPO₄, 150 mM NaCl, pH 6.8, containing 0.02% Na azide (0.1 μm filtered) running at 0.5 mL/min. Samples were injected onto the column using a SIL-20AC Prominence Shimadzu® autosampler, and data were obtained from three online detectors connected in series: a Prominence SPD-20AD diode array UV/vis spectrophotometer followed by a Wyatt miniDAWN™ TREOS Multi-Angle Light Scattering Detector then a Wyatt Optilab T-rEX Refractive Index Detector® instrument. Data were collected and analyzed using Astra® (Wyatt) and Labsolutions® (Shimadzu) software.

hCD73-his [5] = target: T1, hCD73-his; experiment: SEC-MALS, target:mAb 1:1, 4 uM + 4 uM
Method: as §1, §3

human GITR = target: T4, human GITR (human, UniProt Q9Y5U5 26-241); experiment: cell-based or functional assay
T4 sequence (looked up): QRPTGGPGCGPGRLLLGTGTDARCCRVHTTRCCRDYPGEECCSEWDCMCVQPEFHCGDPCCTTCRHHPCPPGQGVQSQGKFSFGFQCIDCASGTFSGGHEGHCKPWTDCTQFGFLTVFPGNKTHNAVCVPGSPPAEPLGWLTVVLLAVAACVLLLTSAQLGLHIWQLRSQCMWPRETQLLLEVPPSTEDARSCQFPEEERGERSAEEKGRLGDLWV

human CD73 on cells [6] = target: T2, human CD73 on cells; experiment: cell-based or functional assay; remark: listed apart in the source
hCD73-his [7] = target: T1, hCD73-his; experiment: DLS, target:mAb 1:1, 2.5 uM + 2.5 uM; unit from the text
Method: as §1, §2

human CD73 on cells [8] = target: T2, human CD73 on cells; experiment: cell-based or functional assay; remark: listed apart in the source
hCD73-his [9] = target: T1, hCD73-his; experiment: SEC-MALS, target:mAb 1:1, 2.5 uM + 2.5 uM
Method: as §1, §3

human CD73 on cells [10] = target: T2, human CD73 on cells; experiment: cell-based or functional assay; remark: listed apart in the source
N-hCD73-his [11] = target: T3, N-hCD73-his; experiment: SPR, mAb captured on protein A
Method: The affinity of the antibodies for human CD73 was measured to determine whether the change of the constant region affects them. The affinities were determined by Surface Plasmon Resonance (SPR) as follows. […] For these experiments, protein A (Pierce) was immobilized to a density of 3000-4000 RU on flow cells 1˜4 of a CMS sensor chip (GE Healthcare) using standard ethyl(dimethylaminopropyl) carbodiimide (EDC)/N-hydroxysuccinimide (NHS) chemistry, with ethanolamine blocking, in a running buffer of 0.01 M HEPES pH 7.4, 0.15 M NaCl, 3 mM EDTA, 0.005% v/v tween 20. […] The running buffer for the kinetic experiments was 10 mM sodium phosphate, 130 mM sodium chloride, 0.05% tween 20, pH 7.1. The surfaces were regenerated after each cycle using two 30 s pulses of 10 mM glycine pH 1.5 at a flow rate of 30 μl/min. Sensogram data was double-referenced and then fitted to a 1:1 Langmuir model using Biacore® T100 evaluation software v2.0.4, to determine the association rate constant (ka), the dissociation rate constant (kd), and the equilibrium dissociation constant (KD).

B1: CD73.3-IgG1.1 (antibody, V domains shown)
VH: EVQLVESGGGLVQPGRSLRLSCAASGFTFDDYAMHWVRQAPGKGLEWVSGISWKSGSIGYADSVKGRFTISRDNAKNSLYLQMNSLRAEDTVLYYCVKGYYVILTGLDYWGQGTLVTVSS
VL: not shown
notes: also called CD73.3-IgG1.1f; 3-Vh-hHC-IgG1.1f/4C3Vk1
hCD73-his [1]
  Rh: 10.8 nm
Human CD73 on cells [2]
  % internalization, H228 cells: -47%
N-hCD73-his [3]
  Rh: 5.8 nm
N-hCD73-his [4]
  MW Peak 1: 170 kDa
hCD73-his [5]
  MW Peak 2: 530 kDa

B2: GITR.6.G2 (antibody, human IgG2, kappa)
heavy: QVQLVESGGGVVQPGRSLRLSCAASGFTFSSYGMHWVRQAPGKGLEWVAVIWYEGSNKYYADSVKGRFTISRDNSKNTLYLQMNSLRAEDTAVYYCARGGSMVRGDYYYGMDVWGQGTTVTVSSASTKGPSVFPLAPCSRSTSESTAALGCLVKDYFPEPVTVSWNSGALTSGVHTFPAVLQSSGLYSLSSVVTVPSSNFGTQTYTCNVDHKPSNTKVDKTVERKCCVECPPCPAPPVAGPSVFLFPPKPKDTLMISRTPEVTCVVVDVSHEDPEVQFNWYVDGVEVHNAKTKPREEQFNSTFRVVSVLTVVHQDWLNGKEYKCKVSNKGLPAPIEKTISKTKGQPREPQVYTLPPSREEMTKNQVSLTCLVKGFYPSDIAVEWESNGQPENNYKTTPPMLDSDGSFFLYSKLTVDKSRWQQGNVFSCSVMHEALHNHYTQKSLSLSPGK
light: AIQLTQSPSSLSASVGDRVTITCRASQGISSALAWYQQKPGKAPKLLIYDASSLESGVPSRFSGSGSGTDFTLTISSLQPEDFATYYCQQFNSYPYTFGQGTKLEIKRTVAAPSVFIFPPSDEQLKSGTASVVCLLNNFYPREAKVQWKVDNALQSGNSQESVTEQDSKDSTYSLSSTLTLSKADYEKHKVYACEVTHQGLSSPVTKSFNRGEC
Human GITR
  NFKB signaling (phospho-p65), CD4+ T cells, EC50: 12.8 nM
  NFKB signaling (phospho-p65), CD4+ T cells, Emax: 69%
  NFKB signaling (phospho-p65), CD8+ T cells, EC50: 9 nM
  NFKB signaling (phospho-p65), CD8+ T cells, Emax: 85%

B3: CD73.4-IgG2-C219S-IgG1.1f (antibody)
heavy: QVQLVESGGGVVQPGRSLRLSCAASGFTFSNYGMHWVRQAPGKGLEWVAVILYDGSNKYYPDSVKGRFTISRDNSKNTLYLQMNSLRAEDTAVYYCARGGSSWYPDSFDIWGQGTMVTVSSASTKGPSVFPLAPCSRSTSESTAALGCLVKDYFPEPVTVSWNSGALTSGVHTFPAVLQSSGLYSLSSVVTVPSSNFGTQTYTCNVDHKPSNTKVDKTVERKSCVECPPCPAPPVAGPSVFLFPPKPKDTLMISRTPEVTCVVVDVSHEDPEVKFNWYVDGVEVHNAKTKPREEQYNSTYRVVSVLTVLHQDWLNGKEYKCKVSNKALPSSIEKTISKAKGQPREPQVYTLPPSREEMTKNQVSLTCLVKGFYPSDIAVEWESNGQPENNYKTTPPVLDSDGSFFLYSKLTVDKSRWQQGNVFSCSVMHEALHNHYTQKSLSLSPGK
light: not shown
notes: also called CD73.4-IgG2.3G1.1f-KH; CD73.4-IgG2CS-IgG1.1f
Human CD73 on cells [6]
  internalization T1/2, Calu6: 21 min
  internalization T1/2, NCI-H292: 16.6 min
  internalization Ymax, Calu6: 81%
  internalization Ymax, NCI-H292: 90.3%
hCD73-his [7]
  Rh: 31.2 nm
Human CD73 on cells [8]
  internalization T1/2, Calu6: 34 min
  internalization T1/2, NCI-H292: 15.8 min
  internalization Ymax, Calu6: 76.8%
  internalization Ymax, NCI-H292: 77.6%
hCD73-his [9]
  MW Peak 1: 3600 kDa
  MW Peak 2: 1100 kDa
  MW Peak 3: 580 kDa

B4: CD73.10-IgG2-C219S-IgG1.1 (antibody)
heavy: QVQLVESGGGVVQPGRSLRLSCAASGFTFSNYGMHWVRQAPGKGLEWVAVIWYDESNKYYPDSVKGRFTISRDNSKNTLYLQMNSLRAEDTAVYYCARGGSSWYPDSFDIWGQGTMVTVSSASTKGPSVFPLAPCSRSTSESTAALGCLVKDYFPEPVTVSWNSGALTSGVHTFPAVLQSSGLYSLSSVVTVPSSNFGTQTYTCNVDHKPSNTKVDKTVERKSCVECPPCPAPPVAGPSVFLFPPKPKDTLMISRTPEVTCVVVDVSHEDPEVKFNWYVDGVEVHNAKTKPREEQYNSTYRVVSVLTVLHQDWLNGKEYKCKVSNKALPSSIEKTISKAKGQPREPQVYTLPPSREEMTKNQVSLTCLVKGFYPSDIAVEWESNGQPENNYKTTPPMLDSDGSFFLYSKLTVDKSRWQQGNVFSCSVMHEALHNHYTQKSLSLSPG
light: not shown
notes: also called CD73.10-IgG2CS-IgG1.1f; CD73.10-Vh-hHC-IgG2-C219S-IgG1.1f
hCD73-his [7]
  Rh: 25.6 nm
Human CD73 on cells [10]
  internalization EC50, Calu6 cells, 2 h: 0.87 nM
  internalization Ymax (% of 100 nM 11F11), Calu6 cells: 99%
Human CD73 on cells [2]
  % internalization, Calu6 cells: 91%
  % internalization, H228 cells: 92%
  % internalization, H2030 cells: 87%
  % internalization, HCC15 cells: 91%
  internalization T1/2, Calu6 cells: 3.1 min
  internalization T1/2, H228 cells: 9.4 min
  internalization T1/2, H2030 cells: 4.3 min
  internalization T1/2, HCC15 cells: 3 min
N-hCD73-his [11]
  Kd: 5.7 nM and 6.8 nM
  koff: 0.0014 s⁻¹ and 0.0016 s⁻¹
  kon: 240000 M⁻¹ s⁻¹ and 230000 M⁻¹ s⁻¹
hCD73-his [9]
  MW Peak 1: 2000 kDa
  MW Peak 2: 320 kDa
  MW Peak 3: 390 kDa
